Results from patent publication US20190071490A1, “Preventing Post-Ictal Headaches” (Beth Israel Deaconess Medical Center, Inc., priority 2017, published 2019).

T1: human α-CGRP (Homo sapiens, UniProt P06881)
T1 construct: 1-37 (WT); purchased GenScript Corporation or Global Peptide Services
T1 sequence (P06881 83-119 limits assumed): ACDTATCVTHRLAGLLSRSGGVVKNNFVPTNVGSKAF

T2: rat α-CGRP (Rattus norvegicus, UniProt P01256)
T2 construct: rat α (1-37); purchased GenScript Corporation or Global Peptide Services
T2 sequence (P01256 83-119 limits assumed): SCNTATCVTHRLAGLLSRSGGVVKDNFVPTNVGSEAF


Key:
[1] = biological target: T1, human α-CGRP; assay: Biacore SPR affinity of Fab fragments to N-biotinylated human α-CGRP on SA chip; format: binding; conditions: 37° C., screening mode except underlined values
In short: (§1)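 HBS-EP pH 7.4 running buffer at 25° C. or 37° C.; N-biotinylated CGRP captured on streptavidin SA chip (<50 RU for kinetics), Fab titrated over surface with regeneration by 25 mM NaOH/25% ethanol. Titrations globally fit to 1:1 Langmuir model; KD=koff/kon, with 2-hour dissociation for very slow off-rates.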

[2] = biological target: T2, rat α-CGRP; assay: Biacore SPR affinity of Fab fragments to N-biotinylated rat α-CGRP on SA chip; format: binding; conditions: 37° C., screening mode except underlined values
In short: as §1

| Molecule | α-human koff [1] [s⁻¹] | α-rat koff [2] [s⁻¹] |
| --- | --- | --- |
| M29: G1 variant; L1 R28N T30G; HC-FW3 L99T A100V (antibody, V domains shown) VH: EVQLVESGGGLVQPGGSLRLSCAASGFTFSNYWISWVRQAPGKGLEWVAEIRSESDASATHYAEAVKGRFTISRDNAKNSLYLQMNSLRAEDTAVYYCTVYFDYGLAIQNYWGQGTLVTVSS VL: EIVLTQSPATLSLSPGERATLSCKASKNVGTYVSWYQQKPGQAPRLLIYGASNRYLGIPARFSGSGSGTDFTLTISSLEPEDFAVYYCSQSYNYPYTFGQGTKLEIK | 0.00038 | 0.00359 |
| M35: G1 variant; L1 R28N T30G; H2 E54K A57S; HC-FW3 L99T A100V (antibody, V domains shown) VH: EVQLVESGGGLVQPGGSLRLSCAASGFTFSNYWISWVRQAPGKGLEWVAEIRSKSDSSATHYAEAVKGRFTISRDNAKNSLYLQMNSLRAEDTAVYYCTVYFDYGLAIQNYWGQGTLVTVSS VL: EIVLTQSPATLSLSPGERATLSCKASKNVGTYVSWYQQKPGQAPRLLIYGASNRYLGIPARFSGSGSGTDFTLTISSLEPEDFAVYYCSQSYNYPYTFGQGTKLEIK | 0.000339 | 0.00399 |
| M31: G1 variant; L1 R28N T30G; H2 E54K A57G; HC-FW3 L99T A100V (antibody, V domains shown) VH: EVQLVESGGGLVQPGGSLRLSCAASGFTFSNYWISWVRQAPGKGLEWVAEIRSKSDGSATHYAEAVKGRFTISRDNAKNSLYLQMNSLRAEDTAVYYCTVYFDYGLAIQNYWGQGTLVTVSS VL: EIVLTQSPATLSLSPGERATLSCKASKNVGTYVSWYQQKPGQAPRLLIYGASNRYLGIPARFSGSGSGTDFTLTISSLEPEDFAVYYCSQSYNYPYTFGQGTKLEIK | 0.000347 | 0.00361 |
| M39: G1 variant; L1 R28N; L2 G50A L56T; H2 A57N S58Y; HC-FW3 L99T A100V (antibody, V domains shown) VH: EVQLVESGGGLVQPGGSLRLSCAASGFTFSNYWISWVRQAPGKGLEWVAEIRSESDNYATHYAEAVKGRFTISRDNAKNSLYLQMNSLRAEDTAVYYCTVYFDYGLAIQNYWGQGTLVTVSS VL: EIVLTQSPATLSLSPGERATLSCKASKNVTTYVSWYQQKPGQAPRLLIYAASNRYTGIPARFSGSGSGTDFTLTISSLEPEDFAVYYCSQSYNYPYTFGQGTKLEIK | 0.000425 | 0.00995 |
| M43: G1 variant; L1 R28N; L2 G50A L56T; H2 E54K A57N S58C; HC-FW3 L99T A100V (antibody, V domains shown) VH: EVQLVESGGGLVQPGGSLRLSCAASGFTFSNYWISWVRQAPGKGLEWVAEIRSKSDNCATHYAEAVKGRFTISRDNAKNSLYLQMNSLRAEDTAVYYCTVYFDYGLAIQNYWGQGTLVTVSS VL: EIVLTQSPATLSLSPGERATLSCKASKNVTTYVSWYQQKPGQAPRLLIYAASNRYTGIPARFSGSGSGTDFTLTISSLEPEDFAVYYCSQSYNYPYTFGQGTKLEIK | 0.000263 | 0.00453 |
| M40: G1 variant; L1 R28N; L2 G50A L56T; H2 E54K A57L; HC-FW3 L99T A100V (antibody, V domains shown) VH: EVQLVESGGGLVQPGGSLRLSCAASGFTFSNYWISWVRQAPGKGLEWVAEIRSKSDLSATHYAEAVKGRFTISRDNAKNSLYLQMNSLRAEDTAVYYCTVYFDYGLAIQNYWGQGTLVTVSS VL: EIVLTQSPATLSLSPGERATLSCKASKNVTTYVSWYQQKPGQAPRLLIYAASNRYTGIPARFSGSGSGTDFTLTISSLEPEDFAVYYCSQSYNYPYTFGQGTKLEIK | 0.00128 | 0.36 |
| M34: G1 variant; L1 R28N T30G; H2 E54K A57N S58T; HC-FW3 L99T A100V (antibody, V domains shown) VH: EVQLVESGGGLVQPGGSLRLSCAASGFTFSNYWISWVRQAPGKGLEWVAEIRSKSDNTATHYAEAVKGRFTISRDNAKNSLYLQMNSLRAEDTAVYYCTVYFDYGLAIQNYWGQGTLVTVSS VL: EIVLTQSPATLSLSPGERATLSCKASKNVGTYVSWYQQKPGQAPRLLIYGASNRYLGIPARFSGSGSGTDFTLTISSLEPEDFAVYYCSQSYNYPYTFGQGTKLEIK | 0.000646 | 0.00217 |
| M37: G1 variant; L1 R28N T30S; H2 A57G; HC-FW3 L99T A100V (antibody, V domains shown) VH: EVQLVESGGGLVQPGGSLRLSCAASGFTFSNYWISWVRQAPGKGLEWVAEIRSESDGSATHYAEAVKGRFTISRDNAKNSLYLQMNSLRAEDTAVYYCTVYFDYGLAIQNYWGQGTLVTVSS VL: EIVLTQSPATLSLSPGERATLSCKASKNVSTYVSWYQQKPGQAPRLLIYGASNRYLGIPARFSGSGSGTDFTLTISSLEPEDFAVYYCSQSYNYPYTFGQGTKLEIK | 0.000226 | 0.00145 |
| M38: G1 variant; L1 R28N T30W; HC-FW3 L99T A100V (antibody, V domains shown) VH: EVQLVESGGGLVQPGGSLRLSCAASGFTFSNYWISWVRQAPGKGLEWVAEIRSESDASATHYAEAVKGRFTISRDNAKNSLYLQMNSLRAEDTAVYYCTVYFDYGLAIQNYWGQGTLVTVSS VL: EIVLTQSPATLSLSPGERATLSCKASKNVWTYVSWYQQKPGQAPRLLIYGASNRYLGIPARFSGSGSGTDFTLTISSLEPEDFAVYYCSQSYNYPYTFGQGTKLEIK | 0.000218 | 0.00511 |
| M41: G1 variant; L1 R28N; L2 G50A L56T; H2 E54K A57N E64D; HC-FW3 L99T A100V (antibody, V domains shown) VH: EVQLVESGGGLVQPGGSLRLSCAASGFTFSNYWISWVRQAPGKGLEWVAEIRSKSDNSATHYADAVKGRFTISRDNAKNSLYLQMNSLRAEDTAVYYCTVYFDYGLAIQNYWGQGTLVTVSS VL: EIVLTQSPATLSLSPGERATLSCKASKNVTTYVSWYQQKPGQAPRLLIYAASNRYTGIPARFSGSGSGTDFTLTISSLEPEDFAVYYCSQSYNYPYTFGQGTKLEIK | 0.00021 | 0.00453 |
| M36: G1 variant; L1 R28N T30R; HC-FW3 L99T A100V (antibody, V domains shown) VH: EVQLVESGGGLVQPGGSLRLSCAASGFTFSNYWISWVRQAPGKGLEWVAEIRSESDASATHYAEAVKGRFTISRDNAKNSLYLQMNSLRAEDTAVYYCTVYFDYGLAIQNYWGQGTLVTVSS VL: EIVLTQSPATLSLSPGERATLSCKASKNVRTYVSWYQQKPGQAPRLLIYGASNRYLGIPARFSGSGSGTDFTLTISSLEPEDFAVYYCSQSYNYPYTFGQGTKLEIK | 0.000239 | 0.00479 |
| M42: G1 variant; L1 R28N; L2 G50A L56T; H2 E54K A57N H61F; HC-FW3 L99T A100V (antibody, V domains shown) VH: EVQLVESGGGLVQPGGSLRLSCAASGFTFSNYWISWVRQAPGKGLEWVAEIRSKSDNSATFYAEAVKGRFTISRDNAKNSLYLQMNSLRAEDTAVYYCTVYFDYGLAIQNYWGQGTLVTVSS VL: EIVLTQSPATLSLSPGERATLSCKASKNVTTYVSWYQQKPGQAPRLLIYAASNRYTGIPARFSGSGSGTDFTLTISSLEPEDFAVYYCSQSYNYPYTFGQGTKLEIK | 0.000417 | 0.00752 |
| M32: G1 variant; L1 R28N T30G; H2 E54K A57H; HC-FW3 L99T A100V (antibody, V domains shown) VH: EVQLVESGGGLVQPGGSLRLSCAASGFTFSNYWISWVRQAPGKGLEWVAEIRSKSDHSATHYAEAVKGRFTISRDNAKNSLYLQMNSLRAEDTAVYYCTVYFDYGLAIQNYWGQGTLVTVSS VL: EIVLTQSPATLSLSPGERATLSCKASKNVGTYVSWYQQKPGQAPRLLIYGASNRYLGIPARFSGSGSGTDFTLTISSLEPEDFAVYYCSQSYNYPYTFGQGTKLEIK | 0.000271 | 0.00296 |
| M33: G1 variant; L1 R28N T30G; H2 E54K A57N S58G; HC-FW3 L99T A100V (antibody, V domains shown) VH: EVQLVESGGGLVQPGGSLRLSCAASGFTFSNYWISWVRQAPGKGLEWVAEIRSKSDNGATHYAEAVKGRFTISRDNAKNSLYLQMNSLRAEDTAVYYCTVYFDYGLAIQNYWGQGTLVTVSS VL: EIVLTQSPATLSLSPGERATLSCKASKNVGTYVSWYQQKPGQAPRLLIYGASNRYLGIPARFSGSGSGTDFTLTISSLEPEDFAVYYCSQSYNYPYTFGQGTKLEIK | 0.00075 | 0.00922 |
| M30: G1 variant; L1 R28N T30G; H2 E54K A57E; HC-FW3 L99T A100V (antibody, V domains shown) VH: EVQLVESGGGLVQPGGSLRLSCAASGFTFSNYWISWVRQAPGKGLEWVAEIRSKSDESATHYAEAVKGRFTISRDNAKNSLYLQMNSLRAEDTAVYYCTVYFDYGLAIQNYWGQGTLVTVSS VL: EIVLTQSPATLSLSPGERATLSCKASKNVGTYVSWYQQKPGQAPRLLIYGASNRYLGIPARFSGSGSGTDFTLTISSLEPEDFAVYYCSQSYNYPYTFGQGTKLEIK | 0.00059 | 0.00638 |
